Results published in EP2431054A2 (Human Genome Sciences, Inc., dated 2012).
One block for each binder: values may come before it.

Legend:
TACI-Fc fusion protein = target: T1, TACI-Fc fusion protein (Homo sapiens (Human), UniProt O14836 1-159); assay: BIAcore (SPR), TACI-Fc amine-coupled to CM5 chip, TNF-epsilon as analyte
T1 construct: The dimeric form was enriched by size exclusion; also called full-length TACI-Fc; soluble TACI-Fc; not shown: Fc portion from vector pC4-Fc
T1 sequence: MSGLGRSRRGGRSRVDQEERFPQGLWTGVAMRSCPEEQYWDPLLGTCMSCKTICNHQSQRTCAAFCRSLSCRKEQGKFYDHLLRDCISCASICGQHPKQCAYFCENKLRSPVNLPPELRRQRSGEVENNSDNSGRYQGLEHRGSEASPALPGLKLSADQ

[1] = target: FLAG-epitope-tagged TNF-epsilon (in conditioned medium) (human) (UniProt O75888); assay: co-immunoprecipitation with M2 anti-FLAG antibody, Western detection with anti-FLAG antibody

Kd (TACI-Fc fusion protein): 6 nM
B1: TNF-epsilon, trimeric form isolated by size exclusion chromatography (ligand)
chain: AVLTQKQKNDSDVTEVMWQPALRRGRGLQAQGYGVRIQDAGVYLLYSQVLFQDVTFTMGQVVSREGQGRQETLFRCIRSMPSHPDRAYNSCYSAGVFHLHQGDILSVIIPRARAKLNLSPHGTFLGFVKL
notes: This is the protein flowed over the TACI-Fc chip

percent of the TNF-epsilon present in the conditioned medium found in the immunoprecipitated TACI-Fc-TNF-epsilon complex [1]: 20%
B2: TACI-Fc fusion protein (Fc fusion, not shown: a dimerising Fc or GST)
chain: T1 sequence
